Columns and labels:
[1] = Vial inversion test of 0.5% RADA16 gels with CaCl2; format: physicochemical
Experimental: FIGS. 41A-41D depict the protocol used to follow peptide dissolution and to assess effects of particular anions and/or cations, and/or their concentration, on certain RADA16 (SEQ ID NO:1) compositions. As shown, peptide powder in a vial was dissolved in deionized water with vortexing and sonication. The particular peptide composition utilized in this Example was a 1% composition of RADA16 (SEQ ID NO:1) that was mixed at a 1:1 ratio with a 2× salt solution to obtain a final concentration of 0.5% RADA16 (SEQ ID NO:1) and the desired molar concentration of salt.
The protocol depicted in FIGS. 41A-41D was followed to prepare 0.5% solutions of RADA16 (SEQ ID NO:1) with different concentrations of CaCl2. Mixed solutions were allowed to sit for a relaxation period of about 24 hours. Vials were then inverted upside down so that gel properties could be assessed.

[2] = Visual observation of peptide compositions with selected salts (cloud point, critical ionic strength); format: physicochemical; settings: room temperature
Experimental: Visual observations of RADA16 (SEQ ID NO:1), KLD12 (SEQ ID NO:2), and IEIK13 (SEQ ID NO:3) compositions with selected salts (e.g. KCl, MgCl2, CaCl2) are summarized in Tables 7-9. […] Apparent stiffness of RADA16 (SEQ ID NO:1), KLD12 (SEQ ID NO:2) and IEIK13 (SEQ ID NO:3) compositions was increased with increased ionic strength.
Critical ion strengths were determined from the visual observations recorded in Tables 7-9. When the ionic strengths of peptide compositions were higher than 0.9 M (RADA16 (SEQ ID NO:1)), 0.3 M (KLD12 (SEQ ID NO:2)) or 0.03 M (IEIK13 (SEQ ID NO:3)), the peptide compositions began phase separation. 0.9 M, 0.3 M and 0.03 M may represent critical ion strengths for RADA16 (SEQ ID NO:1), KLD12 (SEQ ID NO:2) and IEIK13 (SEQ ID NO:3), respectively.

Q: Which “Gel functionality on vial inversion” value ([1]; 0.250 M CaCl2) does the source give for “Arg-Ala-Asp-Ala-Arg-Ala-Asp-Ala-Arg-Ala-Asp-Ala-Arg-Ala-Asp-Ala [RADA16]” here?
A: fully functional gel

Q: What about the “Gel functionality on vial inversion” value ([1]; 0.500 M CaCl2) of the same substance?
A: semi-functional gel

Q: What about the “Gel functionality on vial inversion” value ([1]; 1M CaCl2) of the same substance?
A: non-functional gel

Q: And the Observation ([2]; RADA16 0.5%, DPBS (pH 3.2) 1.0 M, ionic strength 1.0 M)?
A: Cloudy, phase-separated

Q: And the Observation ([2]; RADA16 0.55%, DPBS (pH 3.2) 0.95 M, ionic strength 0.95 M)?
A: Slightly cloudy, brittle gel

Q: And the Observation ([2]; RADA16 0.6%, DPBS (pH 3.2) 0.9 M, ionic strength 0.9 M)?
A: Clear, thick, stiffer gel

Q: What about the Observation ([2]; RADA16 0.75%, DPBS (pH 3.2) 0.75 M, ionic strength 0.75 M) of the same substance?
A: Clear, thick, stiffer gel

Q: And the Observation ([2]; RADA16 0.9%, DPBS (pH 3.2) 0.6 M, ionic strength 0.6 M)?
A: Clear, thick, stiffer gel

Q: What about the Observation ([2]; RADA16 0.93%, KCl 1.15 M, ionic strength 1.15 M) of the same substance?
A: Cloudy, phase-separated

Q: And the Observation ([2]; RADA16 0.95%, KCl 1.1 M, ionic strength 1.1 M)?
A: Slightly cloudy, brittle gel

Q: What about the Observation ([2]; RADA16 0.98%, KCl 1.05 M, ionic strength 1.05 M) of the same substance?
A: Slightly cloudy, thick,

Q: What about the Observation ([2]; RADA16 1.0%, KCl 1.0 M, ionic strength 1.0 M) of the same substance?
A: Clear, thick, stiffer gel

Q: And the Observation ([2]; RADA16 1.0%, NaCl 1.0 M, ionic strength 1.0 M)?
A: Cloudy, phase-separated

Q: And the Observation ([2]; RADA16 1.03%, KCl 0.95 M, ionic strength 0.95 M)?
A: Clear, thick, stiffer gel

Q: And the Observation ([2]; RADA16 1.03%, NaCl 0.95 M, ionic strength 0.95 M)?
A: Cloudy, phase-separated

Q: What about the Observation ([2]; RADA16 1.05%, DPBS (pH 3.2) 0.45 M, ionic strength 0.45 M) of the same substance?
A: Clear, thick, stiffer gel

Q: And the Observation ([2]; RADA16 1.05%, KCl 0.9 M, ionic strength 0.9 M)?
A: Clear, thick, stiffer gel

Q: What about the Observation ([2]; RADA16 1.05%, NaCl 0.9 M, ionic strength 0.9 M) of the same substance?
A: Slightly cloudy, brittle gel

Q: What about the Observation ([2]; RADA16 1.08%, NaCl 0.85 M, ionic strength 0.85 M) of the same substance?
A: Clear, thick, stiffer gel

Q: What about the Observation ([2]; RADA16 1.10%, NaCl 0.8 M, ionic strength 0.8 M) of the same substance?
A: Clear, thick, stiffer gel

Q: What about the Observation ([2]; RADA16 1.13%, KCl 0.75 M, ionic strength 0.75 M) of the same substance?
A: Clear, thick, stiffer gel

Q: And the Observation ([2]; RADA16 1.13%, NaCl 0.75 M, ionic strength 0.75 M)?
A: Clear, thick, stiffer gel

Q: And the Observation ([2]; RADA16 1.2%, DPBS (pH 3.2) 0.3 M, ionic strength 0.3 M)?
A: Clear, thick, stiffer gel

Q: And the Observation ([2]; RADA16 1.2%, KCl 0.6 M, ionic strength 0.6 M)?
A: Clear, thick, stiffer gel

Q: What about the Observation ([2]; RADA16 1.2%, NaCl 0.6 M, ionic strength 0.6 M) of the same substance?
A: Clear, thick, stiffer gel

Q: What about the Observation ([2]; RADA16 1.27%, KCl 0.45 M, ionic strength 0.45 M) of the same substance?
A: Clear, thick, stiffer gel

Q: What about the Observation ([2]; RADA16 1.27%, NaCl 0.45 M, ionic strength 0.45 M) of the same substance?
A: Clear, thick, stiffer gel

Q: And the Observation ([2]; RADA16 1.28%, CaCl2 0.433 M, ionic strength 1.3 M)?
A: Cloudy, phase-separated

Q: And the Observation ([2]; RADA16 1.28%, MgCl2 0.433 M, ionic strength 1.3 M)?
A: Cloudy, phase-separated

Q: What about the Observation ([2]; RADA16 1.29%, CaCl2 0.417 M, ionic strength 1.25 M) of the same substance?
A: Slightly cloudy, brittle gel

Q: What about the Observation ([2]; RADA16 1.29%, MgCl2 0.417 M, ionic strength 1.25 M) of the same substance?
A: Slightly cloudy, brittle gel

Q: What about the Observation ([2]; RADA16 1.3%, CaCl2 0.4 M, ionic strength 1.2 M) of the same substance?
A: Slightly cloudy, thick,

Q: What about the Observation ([2]; RADA16 1.3%, MgCl2 0.4 M, ionic strength 1.2 M) of the same substance?
A: Slightly cloudy, thick,

Q: What about the Observation ([2]; RADA16 1.31%, CaCl2 0.383 M, ionic strength 1.15 M) of the same substance?
A: Clear, thick, stiffer gel

Q: And the Observation ([2]; RADA16 1.31%, MgCl2 0.383 M, ionic strength 1.15 M)?
A: Clear, thick, stiffer gel

Q: What about the Observation ([2]; RADA16 1.32%, CaCl2 0.35 M, ionic strength 1.05 M) of the same substance?
A: Clear, thick, stiffer gel

Q: What about the Observation ([2]; RADA16 1.32%, MgCl2 0.35 M, ionic strength 1.05 M) of the same substance?
A: Clear, thick, stiffer gel

Q: What about the Observation ([2]; RADA16 1.35%, CaCl2 0.3 M, ionic strength 0.9 M) of the same substance?
A: Clear, thick, stiffer gel

Q: What about the Observation ([2]; RADA16 1.35%, DPBS (pH 3.2) 0.15 M, ionic strength 0.15 M) of the same substance?
A: Clear, thick, stiffer gel

Q: What about the Observation ([2]; RADA16 1.35%, KCl 0.3 M, ionic strength 0.3 M) of the same substance?
A: Clear, thick, stiffer gel

Q: And the Observation ([2]; RADA16 1.35%, MgCl2 0.3 M, ionic strength 0.9 M)?
A: Clear, thick, stiffer gel

Q: What about the Observation ([2]; RADA16 1.35%, NaCl 0.3 M, ionic strength 0.3 M) of the same substance?
A: Clear, thick, stiffer gel

Q: And the Observation ([2]; RADA16 1.38%, CaCl2 0.25 M, ionic strength 0.75 M)?
A: Clear, thick, stiffer gel

Q: What about the Observation ([2]; RADA16 1.38%, MgCl2 0.25 M, ionic strength 0.75 M) of the same substance?
A: Clear, thick, stiffer gel

Q: What about the Observation ([2]; RADA16 1.4%, CaCl2 0.2 M, ionic strength 0.6 M) of the same substance?
A: Clear, thick, stiffer gel

Q: And the Observation ([2]; RADA16 1.4%, MgCl2 0.2 M, ionic strength 0.6 M)?
A: Clear, thick, stiffer gel

Q: What about the Observation ([2]; RADA16 1.43%, CaCl2 0.15 M, ionic strength 0.45 M) of the same substance?
A: Clear, thick, stiffer gel

Source: patent US10654893B2, “Self-assembling peptide compositions” (3-D MATRIX, LTD., priority 2014, dated 2020)
